The series “self-assembly, TEM” deals with the molecule itself. Briefly: self-assembly, TEM.
Series [1] deals with the molecule itself. Briefly: disulfide-mediated self-assembly.
Series [2] concerns the molecule itself. Briefly: oxidative self-assembly conditions; TEM.

B1: ^C98RhuA-Pd4 (enzyme)
chain: MQNITQSWFVQGMIKATTDAWLKGWDERNGGNLTLRLDDADIAPYHDNFHQQPRYIPLSQPMPLLANTPFIVTGSGKFFRNVQLDPAANLGIVKVDSCGAGYHILWGLTNEAVPTSELPAHFLSHSERIKATNGKDRVIMHCHATNLIALTYVLENDTAVFTRQLWEGSTECLVVFPDGVGILPWMVPGTDAIGQATAQEMQKHSLVLWPFHGVFGSGPTLDETFGLIDTAEKSAQVLVKVYSMGGMKQTISREELIALGKRFGVTPLASALALGSGSGTSNAVHPTLRHL
notes: also called C98-RhuA-Pd4 mutant
For B1, the binding result in “self-assembly, TEM” is “binds”.

B2: ^C98RhuA-HisTag (enzyme)
chain: MQNITQSWFVQGMIKATTDAWLKGWDERNGGNLTLRLDDADIAPYHDNFHQQPRYIPLSQPMPLLANTPFIVTGSGKFFRNVQLDPAANLGIVKVDSCGAGYHILWGLTNEAVPTSELPAHFLSHSERIKATNGKDRVIMHCHATNLIALTYVLENDTAVFTRQLWEGSTECLVVFPDGVGILPWMVPGTDAIGQATAQEMQKHSLVLWPFHGVFGSGPTLDETFGLIDTAEKSAQVLVKVYSMGGMKQTISREELIALGKRFGVTPLASALALGSGSGHHHHHH
notes: also called RhuA-C98-HisTag; C98-His tagged RhuA mutant
Take B2: the binding result in the series “self-assembly, TEM” is recorded as “binds”.

B3: ^C98RhuA (L-rhamnulose-1-phosphate aldolase variant D98C/C126S/E192A) (enzyme)
chain: MQNITQSWFVQGMIKATTDAWLKGWDERNGGNLTLRLDDADIAPYHDNFHQQPRYIPLSQPMPLLANTPFIVTGSGKFFRNVQLDPAANLGIVKVDSCGAGYHILWGLTNEAVPTSELPAHFLSHSERIKATNGKDRVIMHCHATNLIALTYVLENDTAVFTRQLWEGSTECLVVFPDGVGILPWMVPGTDAIGQATAQEMQKHSLVLWPFHGVFGSGPTLDETFGLIDTAEKSAQVLVKVYSMGGMKQTISREELIALGKRFGVTPLASALAL
notes: C4 symmetric homotetramer (4 x 274 residues); Tetramers link to each other through single C98-C98 disulfide bonds at the corners; also called RhuA-C98; Rhu-C98
Consider B3, for which the binding result in series [1] is given as “binds”.

B4: ^C266RhuA (enzyme)
chain: MQNITQSWFVQGMIKATTDAWLKGWDERNGGNLTLRLDDADIAPYHDNFHQQPRYIPLSQPMPLLANTPFIVTGSGKFFRNVQLDPAANLGIVKVDSDGAGYHILWGLTNEAVPTSELPAHFLSHSERIKATNGKDRVIMHCHATNLIALTYVLENDTAVFTRQLWEGSTECLVVFPDGVGILPWMVPGTDAIGQATAQEMQKHSLVLWPFHGVFGSGPTLDETFGLIDTAEKSAQVLVKVYSMGGMKQTISREELIALGKRFGVCPLASALAL
notes: Surface cysteine lies on the sides of the tetramer; also called RhuA-C266
With B4, in series [2], the binding result is “binds”.

B5: ^C133RhuA (enzyme)
chain: MQNITQSWFVQGMIKATTDAWLKGWDERNGGNLTLRLDDADIAPYHDNFHQQPRYIPLSQPMPLLANTPFIVTGSGKFFRNVQLDPAANLGIVKVDSDGAGYHILWGLTNEAVPTSELPAHFLSHSERIKATCGKDRVIMHCHATNLIALTYVLENDTAVFTRQLWEGSTECLVVFPDGVGILPWMVPGTDAIGQATAQEMQKHSLVLWPFHGVFGSGPTLDETFGLIDTAEKSAQVLVKVYSMGGMKQTISREELIALGKRFGVTPLASALAL
notes: Surface cysteine lies on the sides of the tetramer; also called RhuA-C133
B5: the binding result in series [2] is “binds”.

B6: ^C98RhuA-ACP (enzyme)
chain: MQNITQSWFVQGMIKATTDAWLKGWDERNGGNLTLRLDDADIAPYHDNFHQQPRYIPLSQPMPLLANTPFIVTGSGKFFRNVQLDPAANLGIVKVDSCGAGYHILWGLTNEAVPTSELPAHFLSHSERIKATNGKDRVIMHCHATNLIALTYVLENDTAVFTRQLWEGSTECLVVFPDGVGILPWMVPGTDAIGQATAQEMQKHSLVLWPFHGVFGSGPTLDETFGLIDTAEKSAQVLVKVYSMGGMKQTISREELIALGKRFGVTPLASALALGSGSGSTIEERVKKIIGEQLGVKQEEVTNNASFVEDLGADSLDTVELVMALEEEFDTEIPDEEAEKITTVQAAIDYINGHQA
B6: the binding result in the series “self-assembly, TEM” is “binds”.

The values are drawn from patent US20180354988A1 (University of California, published 2018).
